Results on seven molecules are retold here after US20210253718A1 (MODMAB THERAPEUTICS, published 2021).

Assay [1] addresses FZD1 cysteine-rich domain (CRD), MYC-tagged and GPI-anchored on CHO cells (human). Description: flow cytometry, CHO-CRD cells.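 Further: flow cytometry of Fab binding to CHO cells overexpressing a Frizzled CRD, with binding defined as median fluorescence over twice that of CHO cells lacking any Frizzled CRD.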
For assay [2], the target named is FZD2 cysteine-rich domain (CRD), MYC-tagged and GPI-anchored on CHO cells (human, UniProt Q14332 35-161). Briefly: flow cytometry, CHO-CRD cells.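 Further: flow cytometry of Fab binding to CHO cells overexpressing a Frizzled CRD, with binding defined as median fluorescence over twice that of CHO cells lacking any Frizzled CRD.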
The target in assay [3] is T1, FZD3 cysteine-rich domain (CRD), MYC-tagged and GPI-anchored on CHO cells (human, UniProt Q9NPG1 24-150, GPI anchor).
T1 construct: domain: cysteine-rich domain (CRD); also called FZD3 CRD; CHO-myc-FZDGPI; not shown: MYC tag and GPI anchor signal
T1 sequence (looked up): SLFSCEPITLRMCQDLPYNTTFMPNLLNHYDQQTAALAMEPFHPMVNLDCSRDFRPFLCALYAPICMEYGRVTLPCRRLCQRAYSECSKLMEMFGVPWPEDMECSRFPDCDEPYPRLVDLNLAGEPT
Briefly: flow cytometry, CHO-CRD cells.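 Further: flow cytometry of Fab binding to CHO cells overexpressing a Frizzled CRD, with binding defined as median fluorescence over twice that of CHO cells lacking any Frizzled CRD.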

Assay [4] concerns the target T2, FZD4 cysteine-rich domain (CRD), MYC-tagged and GPI-anchored on CHO cells (human, UniProt Q9ULV1 42-167, GPI anchor).
T2 construct: also called FZD4 CRD; CHO-myc-FZDGPI; not shown: MYC tag and GPI anchor signal
T2 sequence: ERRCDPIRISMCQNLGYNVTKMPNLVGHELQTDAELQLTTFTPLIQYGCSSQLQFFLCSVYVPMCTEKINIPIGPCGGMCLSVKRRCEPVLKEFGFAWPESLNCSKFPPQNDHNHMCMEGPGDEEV
Briefly: flow cytometry, CHO-CRD cells.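 Further: flow cytometry of Fab binding to CHO cells overexpressing a Frizzled CRD, with binding defined as median fluorescence over twice that of CHO cells lacking any Frizzled CRD.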

Assay [5] addresses T3, FZD5 cysteine-rich domain (CRD), MYC-tagged and GPI-anchored on CHO cells (human, UniProt Q13467 29-156, GPI anchor).
T3 construct: also called FZD5 CRD; CHO-myc-FZDGPI; not shown: MYC tag and GPI anchor signal
T3 sequence: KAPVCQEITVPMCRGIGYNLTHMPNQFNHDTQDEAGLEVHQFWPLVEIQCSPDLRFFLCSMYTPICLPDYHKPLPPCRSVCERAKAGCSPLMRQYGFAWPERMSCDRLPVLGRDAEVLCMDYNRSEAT
Description: flow cytometry, CHO-CRD cells.

Assay [6] has as its target T4, FZD6 cysteine-rich domain (CRD), MYC-tagged and GPI-anchored on CHO cells (human, UniProt O60353 20-146, GPI anchor).
T4 construct: also called FZD6 CRD; CHO-myc-FZDGPI; not shown: MYC tag and GPI anchor signal
T4 sequence: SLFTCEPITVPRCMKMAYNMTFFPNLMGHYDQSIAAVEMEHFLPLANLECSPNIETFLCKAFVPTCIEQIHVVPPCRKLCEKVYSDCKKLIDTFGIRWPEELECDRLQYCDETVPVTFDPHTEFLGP
Briefly: flow cytometry, CHO-CRD cells.

For assay [7], the target named is FZD7 cysteine-rich domain (CRD), MYC-tagged and GPI-anchored on CHO cells (human, UniProt O75084 45-169). Description: flow cytometry, CHO-CRD cells.
Assay [8] addresses T5, FZD8 cysteine-rich domain (CRD), MYC-tagged and GPI-anchored on CHO cells (human, UniProt Q498S8 31-155 (rat entry), GPI anchor).
T5 construct: also called FZD8 CRD; CHO-myc-FZDGPI; not shown: MYC tag and GPI anchor signal
T5 sequence: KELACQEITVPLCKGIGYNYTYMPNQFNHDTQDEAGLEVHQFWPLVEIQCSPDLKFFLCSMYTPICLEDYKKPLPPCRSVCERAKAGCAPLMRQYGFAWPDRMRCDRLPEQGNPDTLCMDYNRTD
Briefly: flow cytometry, CHO-CRD cells.

Assay [9] concerns the target T6, FZD9 cysteine-rich domain (CRD), MYC-tagged and GPI-anchored on CHO cells (human, UniProt O00144 35-161, GPI anchor).
T6 construct: also called FZD9 CRD; CHO-myc-FZDGPI; not shown: MYC tag and GPI anchor signal
T6 sequence: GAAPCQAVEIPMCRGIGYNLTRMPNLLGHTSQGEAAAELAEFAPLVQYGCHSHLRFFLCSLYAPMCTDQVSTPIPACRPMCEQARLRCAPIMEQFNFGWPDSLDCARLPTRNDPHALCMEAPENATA
Description: flow cytometry, CHO-CRD cells.

In assay [10] the target is T7, FZD10 cysteine-rich domain (CRD), MYC-tagged and GPI-anchored on CHO cells (human, UniProt Q9ULW2 30-156, GPI anchor).
T7 construct: also called FZD10 CRD; CHO-myc-FZDGPI; not shown: MYC tag and GPI anchor signal
T7 sequence: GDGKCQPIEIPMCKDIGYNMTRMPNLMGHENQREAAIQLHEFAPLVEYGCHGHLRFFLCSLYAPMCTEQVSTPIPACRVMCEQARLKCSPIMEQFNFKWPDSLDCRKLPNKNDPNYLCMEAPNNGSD
Briefly: flow cytometry, CHO-CRD cells.

The target of assay [11] is T1, FZD3 cysteine-rich domain (CRD), …. Briefly: immunofluorescence, CHO-CRD cells.
The target in assay [12] is T2, FZD4 cysteine-rich domain (CRD), …. Briefly: immunofluorescence, CHO-CRD cells.
Assay [13] concerns the target T4, FZD6 cysteine-rich domain (CRD), …. Briefly: immunofluorescence, CHO-CRD cells.
The target of assay [14] is T6, FZD9 cysteine-rich domain (CRD), …. Description: immunofluorescence, CHO-CRD cells.
For assay [15], the target named is T7, FZD10 cysteine-rich domain (CRD), …. Briefly: immunofluorescence, CHO-CRD cells.
Assay [16] concerns the target T8, recombinant human FZD5-Fc chimera (R&D Systems, Catalog no. 1617-FZ) (human, UniProt Q13467 27-167).
T8 construct: used for selection and ELISA; Fc part of the bought chimera not given
T8 sequence: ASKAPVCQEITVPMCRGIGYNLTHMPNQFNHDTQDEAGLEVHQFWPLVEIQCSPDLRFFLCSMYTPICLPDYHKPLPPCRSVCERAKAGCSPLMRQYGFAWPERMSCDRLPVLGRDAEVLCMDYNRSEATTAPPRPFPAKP
Description: SPR, Frizzled-Fc chimera.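 Further: binding targets are Fc fusions carrying an extracellular Frizzled fragment that contains the CRD.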

Assay [17] has as its target T9, FZD8-Fc (UniProt Q9H461 28-158, limits assumed).
T9 construct: extracellular domain; also called Frizzled-Fc chimera (FZD8); not shown: Fc part
T9 sequence (looked up): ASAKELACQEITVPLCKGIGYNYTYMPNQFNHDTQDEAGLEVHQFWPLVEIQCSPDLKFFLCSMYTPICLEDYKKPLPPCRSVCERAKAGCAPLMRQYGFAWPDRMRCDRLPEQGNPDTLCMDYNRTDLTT
Briefly: SPR, Frizzled-Fc chimera.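 Further: binding targets are Fc fusions carrying an extracellular Frizzled fragment that contains the CRD.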

B1: Fab-2916 (Fab, V domains shown)
VH: EVQLVESGGGLVQPGGSLRLSCAASGFNISYSSIHWVRQAPGKGLEWVASIYPSYSYTYYADSVKGRFTISADTSKNTAYLQMNSLRAEDTAVYYCARYGYYGMDYWGQGTLVTVSS
VL: DIQMTQSPSSLSASVGDRVTITCRASQSVSSAVAWYQQKPGKAPKLLIYSASSLYSGVPSRFSGSRSGTDFTLTISSLQPEDFATYYCQQWYHYPYLITFGQGTKVEIK
notes: Fab
In the case of B1, the median fluorescence in assay [1] was 34.3; in [2], 18.9; in assay [3], 4.53; in [4] it was 6.1; in assay [5], 24.1; in assay [6], 3.49. Besides, the median fluorescence in assay [7] amounted to 36.2; in assay [8] it was 7.37; in assay [9], 3.52; in assay [10], 2.94. Moreover, the binding result in assay [11], in assay [12], in assay [13], in assay [14] and in assay [15] was “no binding” each time.

B2: IgG-2929 (antibody, V domains shown)
VH: EVQLVESGGGLVQPGGSLRLSCAASGFNISYYYIHWVRQAPGKGLEWVASIYPSSSSTSYADSVKGRFTISADTSKNTAYLQMNSLRAEDTAVYYCARGAMDYWGQGTLVTVSS
VL: DIQMTQSPSSLSASVGDRVTITCRASQSVSSAVAWYQQKPGKAPKLLIYSASSLYSGVPSRFSGSRSGTDFTLTISSLQPEDFATYYCQQWYSSYGLITFGQGTKVEIK
notes: also called Fv-2929
Consider B2, for which the kon in [16] stood at 2.77e+06 M⁻¹ s⁻¹; in assay [17], 3.27e+06 M⁻¹ s⁻¹.

B3: Fab-2927 (Fab, V domains shown)
VH: EVQLVESGGGLVQPGGSLRLSCAASGFNIYYSSMHWVRQAPGKGLEWVASIYPSYGYTSYADSVKGRFTISADTSKNTAYLQMNSLRAEDTAVYYCARYGYYGFDYWGQGTLVTVSS
VL: DIQMTQSPSSLSASVGDRVTITCRASQSVSSAVAWYQQKPGKAPKLLIYSASSLYSGVPSRFSGSRSGTDFTLTISSLQPEDFATYYCQQWGSHGYLITFGQGTKVEIK
notes: Fab; also called Fv-2927
Consider B3, for which the median fluorescence in assay [1] came out at 18.7; in assay [2], 17.9; in assay [3] it was 4.45; in [4], 5.94; in [5], 28.3; in [6], 3.05. For the same molecule, the median fluorescence was determined as 16.7 in assay [7], 10.3 in assay [8], 3.85 in assay [9] and 3.31 in assay [10]. Further, the binding result in assay [11], in assay [12], in assay [13], in assay [14] and in [15] was “no binding” in each case.

B4: IgG-2921 (antibody, V domains shown)
VH: EVQLVESGGGLVQPGGSLRLSCAASGFNISYYYIHWVRQAPGKGLEWVASIYPSSGSTSYADSVKGRFTISADTSKNTAYLQMNSLRAEDTAVYYCARGAMDYWGQGTLVTVSS
VL: DIQMTQSPSSLSASVGDRVTITCRASQSVSSAVAWYQQKPGKAPKLLIYSASSLYSGVPSRFSGSRSGTDFTLTISSLQPEDFATYYCQQWYAGSLITFGQGTKVEIK
Take B4: in assay [16], the Kd came out at 0.106 nM, the off-rate constant (koff) was 9.81e-05 s⁻¹ and the on-rate (kon) turned out to be 922000 M⁻¹ s⁻¹. In [17], this molecule showed a Kd of 0.0244 nM, a koff of 2.71e-05 s⁻¹ and a kon of 1.11e+06 M⁻¹ s⁻¹.

B5: IgG-2919 (antibody, V domains shown)
VH: EVQLVESGGGLVQPGGSLRLSCAASGFNISYSYIHWVRQAPGKGLEWVASIYSSSGSTSYADSVKGRFTISADTSKNTAYLQMNSLRAEDTAVYYCARGAIDYWGQGTLVTVSS
VL: DIQMTQSPSSLSASVGDRVTITCRASQSVSSAVAWYQQKPGKAPKLLIYSASSLYSGVPSRFSGSRSGTDFTLTISSLQPEDFATYYCQQWYSSGHVLITFGQGTKVEIKR
notes: human IgG1 heavy chain (hG1), human kappa light chain (hK)
As to B5, in assay [16], the Kd was 0.194 nM, the koff worked out at 8.06e-05 s⁻¹ and the kon stood at 416000 M⁻¹ s⁻¹. In [17], this molecule came in with a Kd of 0.0427 nM, a koff of 2.28e-05 s⁻¹ and a kon of 533000 M⁻¹ s⁻¹.

B6: IgG-2910 (antibody, V domains shown)
VH: EVQLVESGGGLVQPGGSLRLSCAASGFNISYSYMHWVRQAPGKGLEWVASIYSSSSSTSYADSVKGRFTISADTSKNTAYLQMNSLRAEDTAVYYCARGAMDYWGQGTLVTVSS
VL: DIQMTQSPSSLSASVGDRVTITCRASQSVSSAVAWYQQKPGKAPKLLIYSASSLYSGVPSRFSGSRSGTDFTLTISSLQPEDFATYYCQQWYGSHLITFGQGTKVEIK
As for B6, in assay [16], the Kd was determined as 0.115 nM, the koff was 0.000174 s⁻¹ and the kon was found to be 1.52e+06 M⁻¹ s⁻¹. Moreover, in assay [17], the Kd worked out at 0.0427 nM, the koff came out at 2.28e-05 s⁻¹ and the on-rate (kon) came out at 533000 M⁻¹ s⁻¹.

B7: IgG-2920 (antibody, V domains shown)
VH: EVQLVESGGGLVQPGGSLRLSCAASGFNISYYYIHWVRQAPGKGLEWVASIYPSSGSTSYADSVKGRFTISADTSKNTAYLQMNSLRAEDTAVYYCARGGMDYWGQGTLVTVSS
VL: DIQMTQSPSSLSASVGDRVTITCRASQSVSSAVAWYQQKPGKAPKLLIYSASSLYSGVPSRFSGSRSGTDFTLTISSLQPEDFATYYCQQWFAGALITFGQGTKVEIK
Regarding B7, in assay [16], the Kd worked out at 0.0883 nM, the koff amounted to 0.000317 s⁻¹ and the kon was found to be 3.59e+06 M⁻¹ s⁻¹. In addition, in [17], binding was characterised by a dissociation constant (Kd) of 0.056 nM, the koff stood at 0.000238 s⁻¹ and the kon turned out to be 4.25e+06 M⁻¹ s⁻¹.
